For this experiment, the target named is T1, recombinant Human CTGF protein (connective tissue growth factor) (human, UniProt P29279 27-349).
T1 construct: connective tissue growth factor (CTGF), human, recombinant; source: bought: Abcam, Cat#ab283457
T1 sequence (looked up): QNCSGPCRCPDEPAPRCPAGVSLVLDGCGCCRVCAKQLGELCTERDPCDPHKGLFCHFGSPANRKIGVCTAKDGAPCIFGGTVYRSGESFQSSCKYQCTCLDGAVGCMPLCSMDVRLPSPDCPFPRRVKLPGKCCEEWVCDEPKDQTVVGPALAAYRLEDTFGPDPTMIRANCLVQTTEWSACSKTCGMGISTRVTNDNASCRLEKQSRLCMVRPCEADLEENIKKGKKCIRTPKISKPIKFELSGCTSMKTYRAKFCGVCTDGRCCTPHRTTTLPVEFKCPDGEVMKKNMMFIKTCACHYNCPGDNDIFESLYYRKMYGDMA
Kind of experiment: SPR; BIAcore 8K+; recombinant human CTGF immobilised on a CM5 chip by amine coupling; eluent PBS with 0.005% Tween 20; DAG 0.5-16 μM or DGC 0.01-0.16 μM; 25 °C. As to conditions: both partners purified. On the technique in general: Surface plasmon resonance follows binding to a sensor surface in real time, without labels.

Ends that are not written are not given here.

B1: DGC probe (peptide-coated gold nanocluster, Au26DAG8) (other)
peptide: CDAGRKQKC
modifications: also: Au26 nanocluster bound via Cys sulfhydryl Au-S bonds, cyclic, ring closure not given here
notes: DAG peptide, eight copies on one Au26 gold nanocluster; One Au26 gold nanocluster coated by eight DAG peptides (by MALDI-TOF-MS); also called CTGF-targeting peptide-coated gold nanocluster; source: synthesised from DAG peptide and HAuCl4 at 55 °C, purified by ultrafiltration (MWCO 3 kDa)
Consider B1, for which the equilibrium dissociation constant (Kd) – broadly, the concentration at which binding is half-saturated – was 0.0219 µM.

B2: cyclic peptide Cys-Asp-Ala-Gly-Arg-Lys-Gln-Lys-Cys (DAG) (peptide)
peptide: CDAGRKQKC
modifications: also: cyclic peptide, ring not given here
notes: CTGF-targeting peptide DAG; also called free DAG; DAG peptide; source: synthetic peptide (solid-phase method, Beijing Scilight Biotechnology LLC, purity 95%)
With B2, the Kd was determined as 22.3 µM.
